This note sets out measurements from patent publication US20100260763A1 (DOMANTIS, published 2010).

Test [1] deals with T1, human TNFR1, soluble recombinant protein (human, UniProt P19438 22-211, limits assumed, biotinylated in the BIAcore assays (coupling via primary amines)).
T1 construct: also called biotinylated TNFR1; human recombinant E. coli-expressed human TNFR1
T1 sequence (looked up): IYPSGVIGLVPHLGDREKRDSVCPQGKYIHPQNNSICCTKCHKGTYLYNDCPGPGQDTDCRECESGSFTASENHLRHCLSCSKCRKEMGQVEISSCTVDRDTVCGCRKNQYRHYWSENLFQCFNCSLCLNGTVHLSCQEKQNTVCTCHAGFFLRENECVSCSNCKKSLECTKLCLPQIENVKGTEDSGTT
The test is described as follows: phage ELISA, plate coated with 1 nM TNFR1, anti-M13-HRP; trypsin 100 µg/ml 1 h room temp; phage input 2.82E+09. On the technique in general: ELISA stands for enzyme-linked immunosorbent assay.

The target of test [2] is T1, human TNFR1, soluble recombinant protein. As to the kind of experiment: phage ELISA, plate coated with 1 nM TNFR1, anti-M13-HRP; trypsin 0 µg/ml; phage input 2.82E+09.
For test [3] the target is unchanged. The test is described as follows: phage ELISA, plate coated with 1 nM TNFR1, anti-M13-HRP; trypsin 1 mg/ml 1 h room temp; phage input 2.82E+09.
For test [4] the target is unchanged. As to the kind of experiment: phage ELISA, plate coated with 1 nM TNFR1, anti-M13-HRP; trypsin 10 µg/ml 1 h room temp; phage input 5.64E+09.
For test [5] the target is unchanged. The test is described as follows: phage ELISA, plate coated with 1 nM TNFR1, anti-M13-HRP; trypsin 100 µg/ml 1 h room temp; phage input 2.26E+10.
Test [6] shares this target. As to the kind of experiment: phage ELISA, plate coated with 1 nM TNFR1, anti-M13-HRP; trypsin 10 µg/ml 1 h room temp; phage input 1.13E+10.
For test [7] the target is unchanged. The test is described as follows: phage ELISA, plate coated with 1 nM TNFR1, anti-M13-HRP; trypsin 1 mg/ml 1 h room temp; phage input 2.26E+10.
Test [8] shares this target. The test is described as follows: phage ELISA, plate coated with 1 nM TNFR1, anti-M13-HRP; trypsin 0 µg/ml; phage input 7.05E+08.
The target is the same in test [9]. The test is described as follows: phage ELISA, plate coated with 1 nM TNFR1, anti-M13-HRP; trypsin 100 µg/ml 1 h room temp; phage input 7.05E+08.
Test [10] has the same target. As to the kind of experiment: phage ELISA, plate coated with 1 nM TNFR1, anti-M13-HRP; trypsin 0 µg/ml; phage input 1.13E+10.
Test [11] shares this target. The test is described as follows: phage ELISA, plate coated with 1 nM TNFR1, anti-M13-HRP; trypsin 1 mg/ml 1 h room temp; phage input 1.13E+10.
Test [12] shares this target. As to the kind of experiment: phage ELISA, plate coated with 1 nM TNFR1, anti-M13-HRP; trypsin 10 µg/ml 1 h room temp; phage input 2.26E+10.

Take DOM1h-131 displayed on phage: the phage ELISA read-out in [1] is 0.141; in test [2] it was 0.946; in [3], 0.114; in test [4] it was 0.695; in test [5] it was 0.377; in test [6] it was 0.86. In addition, the phage ELISA read-out was found to be 0.229 in test [7]; 0.705 in test [8]; 0.084 in [9]; 0.949 in test [10]; 0.183 in test [11]; 0.802 in test [12].
